Laboratory results from the supplement of paper PMC9112550, “Optimization of the antimicrobial peptide Bac7 by deep mutational scanning” (BMC Biology, 2022).

Tested on: Escherichia coli TOP10
Assay: shrunken log2 fold change of peptide-encoding DNA abundance (4.5 h post-induction vs induction); higher = less antimicrobial activity (less host growth inhibition)
Conditions: time post-induction: 4.5 h; library: site-saturation at positions 5, 18, 19, 20
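Also: peptides expressed intracellularly from a pBAD plasmid library in pooled LB shake-flask culture, induced with 0.3% L-arabinose, DNA abundance read by NGS, three biological replicates, DESeq2 with apeglm shrinkage.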

RRIRIRPPRLPRPRPRPAFSPRP
shrunken log2 fold change: -0.155

RRIRIRPPRLPRPRPRPAFTPRP
shrunken log2 fold change: 0.106

RRIRIRPPRLPRPRPRPAGQPRP
shrunken log2 fold change: 0.0455

RRIRIRPPRLPRPRPRPAIHPRP
shrunken log2 fold change: -0.475

RRIRIRPPRLPRPRPRPAIVPRP
shrunken log2 fold change: -0.135

RRIRIRPPRLPRPRPRPAKNPRP
shrunken log2 fold change: 2.21

RRIRIRPPRLPRPRPRPAKTPRP
shrunken log2 fold change: 0.0509

RRIRIRPPRLPRPRPRPAKYPRP
shrunken log2 fold change: -0.247

RRIRIRPPRLPRPRPRPALFPRP
shrunken log2 fold change: -0.139

RRIRIRPPRLPRPRPRPANAPRP
shrunken log2 fold change: -0.319

RRIRIRPPRLPRPRPRPANCPRP
shrunken log2 fold change: -1.1

RRIRIRPPRLPRPRPRPAPRPRP
shrunken log2 fold change: 0.733

RRIRIRPPRLPRPRPRPAPVPRP
shrunken log2 fold change: 0.171

RRIRIRPPRLPRPRPRPARFPRP
shrunken log2 fold change: -0.0256

RRIRIRPPRLPRPRPRPASAPRP
shrunken log2 fold change: 0.613

RRIRIRPPRLPRPRPRPAWAPRP
shrunken log2 fold change: 0.243

RRIRIRPPRLPRPRPRPAYTPRP
shrunken log2 fold change: -1.41

RRIRIRPPRLPRPRPRPCAFPRP
shrunken log2 fold change: -0.1

RRIRIRPPRLPRPRPRPCDDPRP
shrunken log2 fold change: -0.395

RRIRIRPPRLPRPRPRPCDIPRP
shrunken log2 fold change: -0.416

RRIRIRPPRLPRPRPRPCDPPRP
shrunken log2 fold change: 0.00225

RRIRIRPPRLPRPRPRPCEEPRP
shrunken log2 fold change: 0.0173

RRIRIRPPRLPRPRPRPCEIPRP
shrunken log2 fold change: -0.0178

RRIRIRPPRLPRPRPRPCFAPRP
shrunken log2 fold change: -0.1

RRIRIRPPRLPRPRPRPCHTPRP
shrunken log2 fold change: -0.0495

RRIRIRPPRLPRPRPRPCINPRP
shrunken log2 fold change: -0.355

RRIRIRPPRLPRPRPRPCMFPRP
shrunken log2 fold change: -0.738

RRIRIRPPRLPRPRPRPCNKPRP
shrunken log2 fold change: -0.47

RRIRIRPPRLPRPRPRPCPGPRP
shrunken log2 fold change: -0.372

RRIRIRPPRLPRPRPRPCPMPRP
shrunken log2 fold change: -0.367

RRIRIRPPRLPRPRPRPCPVPRP
shrunken log2 fold change: -0.523

RRIRIRPPRLPRPRPRPCQIPRP
shrunken log2 fold change: -0.0429

RRIRIRPPRLPRPRPRPCSDPRP
shrunken log2 fold change: -0.0062

RRIRIRPPRLPRPRPRPCSPPRP
shrunken log2 fold change: -0.271

RRIRIRPPRLPRPRPRPCTKPRP
shrunken log2 fold change: -0.151

RRIRIRPPRLPRPRPRPCVAPRP
shrunken log2 fold change: -0.288

RRIRIRPPRLPRPRPRPCYLPRP
shrunken log2 fold change: -0.0394

RRIRIRPPRLPRPRPRPDARPRP
shrunken log2 fold change: 0.262

RRIRIRPPRLPRPRPRPDCEPRP
shrunken log2 fold change: -0.0193

RRIRIRPPRLPRPRPRPDDCPRP
shrunken log2 fold change: -0.271

RRIRIRPPRLPRPRPRPDEGPRP
shrunken log2 fold change: -0.22

RRIRIRPPRLPRPRPRPDEKPRP
shrunken log2 fold change: -0.0762

RRIRIRPPRLPRPRPRPDEPPRP
shrunken log2 fold change: 0.115

RRIRIRPPRLPRPRPRPDFTPRP
shrunken log2 fold change: -0.355

RRIRIRPPRLPRPRPRPDGCPRP
shrunken log2 fold change: -0.229

RRIRIRPPRLPRPRPRPDGNPRP
shrunken log2 fold change: -0.0425

RRIRIRPPRLPRPRPRPDHAPRP
shrunken log2 fold change: -0.0379

RRIRIRPPRLPRPRPRPDHHPRP
shrunken log2 fold change: -1.37

RRIRIRPPRLPRPRPRPDIMPRP
shrunken log2 fold change: -0.121

RRIRIRPPRLPRPRPRPDIVPRP
shrunken log2 fold change: -0.906

RRIRIRPPRLPRPRPRPDKKPRP
shrunken log2 fold change: -0.0638

RRIRIRPPRLPRPRPRPDLQPRP
shrunken log2 fold change: -0.0567

RRIRIRPPRLPRPRPRPDMYPRP
shrunken log2 fold change: -0.173

RRIRIRPPRLPRPRPRPDRKPRP
shrunken log2 fold change: -0.0167

RRIRIRPPRLPRPRPRPDRLPRP
shrunken log2 fold change: -0.453

RRIRIRPPRLPRPRPRPDRRPRP
shrunken log2 fold change: -0.274

RRIRIRPPRLPRPRPRPDVDPRP
shrunken log2 fold change: -0.297

RRIRIRPPRLPRPRPRPDVRPRP
shrunken log2 fold change: 0.0768

RRIRIRPPRLPRPRPRPDVYPRP
shrunken log2 fold change: -0.571

RRIRIRPPRLPRPRPRPDWAPRP
shrunken log2 fold change: -0.0489

RRIRIRPPRLPRPRPRPDWMPRP
shrunken log2 fold change: -0.131

RRIRIRPPRLPRPRPRPDYDPRP
shrunken log2 fold change: -0.00137

RRIRIRPPRLPRPRPRPDYIPRP
shrunken log2 fold change: -0.183

RRIRIRPPRLPRPRPRPDYNPRP
shrunken log2 fold change: -0.998

RRIRIRPPRLPRPRPRPECAPRP
shrunken log2 fold change: -0.0969

RRIRIRPPRLPRPRPRPECPPRP
shrunken log2 fold change: -0.0846

RRIRIRPPRLPRPRPRPECYPRP
shrunken log2 fold change: -0.146

RRIRIRPPRLPRPRPRPEFFPRP
shrunken log2 fold change: 0.179

RRIRIRPPRLPRPRPRPEGCPRP
shrunken log2 fold change: -0.0356

RRIRIRPPRLPRPRPRPEGMPRP
shrunken log2 fold change: -0.0787

RRIRIRPPRLPRPRPRPEHDPRP
shrunken log2 fold change: -0.523

RRIRIRPPRLPRPRPRPEIYPRP
shrunken log2 fold change: -4.67e-05

RRIRIRPPRLPRPRPRPEKRPRP
shrunken log2 fold change: -0.0249

RRIRIRPPRLPRPRPRPEKVPRP
shrunken log2 fold change: -0.13

RRIRIRPPRLPRPRPRPEKYPRP
shrunken log2 fold change: -0.423
